Reference: the supplement of paper PMC9170038

Test system: MS2 coat protein
Test: apparent KD of MS2 coat protein; designed switch direction (-1 OFF switch, 1 ON switch): -1; higher = weaker reporter binding
Method in brief: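 An oligonucleotide input, 200 uM small-molecule ligand, or no input was present during titration of SNAP-549-labelled MS2 coat protein, which was doubled from 0.7 or 1.5 nM to 3 µM. Designed RNA switches had been transcribed on Illumina chips by stalled E. coli RNA polymerase. Apparent KD per design is the median over clusters of curves fitted to normalised cluster fluorescence.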

[1] = Eterna round: R95, input ligand: FMN 200 uM
[2] = Eterna round: R95, input ligand: microRNA oligo, concentration not stated
[3] = Eterna round: R95, input ligand: none
[4] = input ligand: microRNA oligo, concentration not stated

Sequence	apparent KD of MS2 coat protein [1]	apparent KD of MS2 coat protein [2]	apparent KD of MS2 coat protein [3]	apparent KD of MS2 coat protein (input ligand: FMN 200 uM)	apparent KD of MS2 coat protein (input ligand: none)	apparent KD of MS2 coat protein [4]
AAGAAGAUAGGAUAUACGAGGAGAGGAGAGAAGAGGAGAGGACAUGAGGAUCACCCAUGUAGAAGGAUCAGGAA [JR_Exclu2_Sub062] (puzzle: Exclusion 2)	28.9 nM	29.6 nM	28.5 nM			
UUUUACAAGCCAGAUCCUCACAUGAGGAUCACCCAUGUGCUCGUCUGUUUUUGUACUAUCACGUUUGUGAUAGUGUU [Level Boss var2-09] (puzzle: Sensor v3, turn-off variant 1)	189 nM	14.6 nM	189 nM			
GUUUGACAUGAGGAUCACCCAUGUAAGGAUAUACGAGUAGAUGAUAGAUAGAUAGUAAGUAGAAGGUACGUGUU [Translation] (Eterna round: R97, puzzle: Exclusion 1)				70.6 nM	105 nM	
AGAUCACAUGAGGAUCACCCAUGUCAGGAUAUCGUCACUGGAGCUGCGGCUCCAGUGACGAGAAGGGACAUAAU [E1/2-A3] (Eterna round: R97, puzzle: Exclusion 1)				252 nM	326 nM	
CGUAGCAAAGUGAGGAUAUCUAGAGCCUCGGCUCUAGAGAAGGCACAUGAGGAUCACCCAUGUGAUUAGCUACG [BmEx4/9-A2] (Eterna round: R97, puzzle: Brourd's mod of Exclusion 4)				173 nM	24.1 nM	
UUCACAUGGACAUAAGAUCACAUGAGGAUCACCCAUGUGAAUAACAAGCUUUUUGUUCGUCUUAUGUCCAAUAAUAG [Stov1/14-B2] (Eterna round: R97, puzzle: Sensor, turn-off variant 1)				13.7 nM	13.5 nM	
AAUAACAAGUUGAUCCUUCACAUGAGGAUCACCCAUGUGCUCGUCUUGUAAAGUACUAUCACGAAAGUGAUAGUACA (Eterna round: R97, puzzle: Sensor, turn-off variant 1)				256 nM	249 nM	
AGUAGGUCUACCUUGGUGGAUCUGCAUAAAGCAAGUGAAACAUGAGGAUCACCCAUGUCCUCAUUUGCUCGUCUUAU [JL turnoff v2 99.20] (puzzle: Sensor v3, turn-off variant 2)	14.8 nM	634 nM	13 nM			
CAUGAUUGGCGAGGAUAUUGAUCUAGUUGGCGACGAGAAGGCGCCUGUCACAUGAGGAUCACCCAUGUGAAUCUGGUGGAUGAG [Ex NG1 #88] (Eterna round: R96, puzzle: Exclusion NG 1)				23 nM	23.5 nM	18.4 nM
AGAUAGUGCAGAGGAUAUCGUAAUAGAAAGAAUCGAGAAGGCUGACAUGAGGAUCACCCAUGUGAUGUCUUGAGACUACAUGGU [Prohibition 34 - Jieux - Exclusion NG 1] (Eterna round: R96, puzzle: Exclusion NG 1)				460 nM	83.1 nM	62.8 nM
AGCUGACGAGGAUAUACAUGAGGAUCACCCAUGUAAGAUCAGCGACGAUAGUCGCAAUGUAGAAGGCGUCAGCU [E3/10-A2] (Eterna round: R97, puzzle: Exclusion 3)				299 nM	30.1 nM	
UUAAUGUGAGGAUAUGGUAAAGAUAGAAUGAUGAAAGAACUCCAGAAGGCACAUGAGGAUCACCCAUGUAGAUG [Mat - Exclusion 4 - Mod of JL - D28] (puzzle: Exclusion 4)	68.3 nM	30.5 nM	42 nM			
UUGUGCACGCUGCGGUCCUACAUGAGGAUCACCCAUGUGGUCUGGUGGCGUGGGUCACCGGACUUGGCUCGUCUUGA [salish99_S_TOV1_R5_061] (Eterna round: R97, puzzle: Sensor, turn-off variant 1)				52.7 nM	57.8 nM	
AUAAAGUGAGGAUAUAUAAGACACGGUGAUACACCGUGAAAAUAGAAGGUACAUGAGGAUCACCCAUGUAGGGC [Mod of Anonveat 18 - Jieux - Exclusion 4] (Eterna round: R97, puzzle: Exclusion 4)				33.6 nM	29.4 nM	
UGGUGGUAGCAGGAUAUGCUUGUUGUGUAGUUUGCAGAAGGGCUAACAUGAGGAUCACCCAUGUAAGAGGUGUU [JR_E6_Sub054] (puzzle: Exclusion 6)		339 nM				
AAGAGAGCAGGAUAUACAUGAGGAUCACCCAUGUGGGAAAUAAGUGGCGUACCACAAAGUAGAAGGGCUUUCCA [jl-ex3-4.80 Eli automod] (Eterna round: R97, puzzle: Exclusion 3)				310 nM	86.2 nM	
CCUCUACAUGAGGAUCACCCAUGUGAGGAUAUCAAAGUCAGAGCGGCUCUCUGACUCAUGAGAAGGUGCAUGAA [EX1 A.13] (Eterna round: R97, puzzle: Exclusion 1)				30.6 nM	21.6 nM	
GGGUGCAGGCUAAGAUCCUACAUGAGGAUCACCCAUGUGGUCCGGUGACGUGAGUCACCGGACUUAGCUCGUCUUGU [salish99_S_TOV1_R5_006] (Eterna round: R97, puzzle: Sensor, turn-off variant 1)				133 nM	142 nM	
GGUCUACAUGAGGAUCACCCAUGUAAGGAUAUCUACAUUGAAGCUUCGGCUUCAAUGUAGAGAAGGUGCAUAAU [E1/11-B1] (Eterna round: R97, puzzle: Exclusion 1)				37.3 nM	31.4 nM	
GUUAAACAUGAGGAUCACCCAUGUAAGGAUAUGCUGCGGUCGAGAUGAAGUGACUGCAGCAGAAGGUACAAAUG [Mat - Mod of JL D60] (puzzle: Exclusion 1)	162 nM	127 nM	133 nM			
GGAGGAAGAGAGGAUAUGCACUCAAGGAGAAAAGCAGAAGGUUCAACAUGAGGAUCACCCAUGUAUGAUCCUCA [AK-MS2ROC-r4-exclusion6-3] (Eterna round: R97, puzzle: Exclusion 6)				247 nM	197 nM	
GUCGUGUAAGGAUAUGCAUCGAGGUAGCGAAUGUUGCAGGUGUAGAAGGUACAUGAGGAUCACCCAUGUAAUGU [Exclusion 4 - An extended Mod of Jieux] (puzzle: Exclusion 4)		20.2 nM				
UAAAAGCUAGGAUAUACUGGCACACAACUCAUAAAUUCAAGACAUGAGGAUCACCCAUGUAGAAGGAGCAAAUA [EX2 A.3] (Eterna round: R97, puzzle: Exclusion 2)				63.5 nM	23.6 nM	
ACAAGCGAAAGGCUCGUCUUAUUUUUGUAGAGGUUCUAAACAUGAGGAUCACCCAUGUAGUGGUUAUGGUGGAGGUA [JR_SV3TOV2_Sub070] (puzzle: Sensor v3, turn-off variant 2)	57.1 nM	64.4 nM	74.6 nM			
AUAUAACAUGAGGAUCACCCAUGUCAGGAUAUGCAGAACAAGAACAAGACAAGACAGAGCAGAAGGGACAAUAU [Ex 1 M4] (puzzle: Exclusion 1)	43.8 nM	34.9 nM	48.1 nM			
CGAUGUUGUGUCAGGAUAUGCGUUGCGAAAGCAAUGUAGAAGGGACAUGAGGAUCACCCAUGUUCUAACCAUCG [Omei A 9] (puzzle: Brourd's mod of Exclusion 4)		11.2 nM				
